Patent US20200062863A1 (CSL BEHRING, published 2020)

How the values were obtained:
human Factor XIIa-alpha = target: T1, human Factor XIIa-alpha (human, UniProt P00748 20-615); experiment: cell-based or functional assay
T1 sequence: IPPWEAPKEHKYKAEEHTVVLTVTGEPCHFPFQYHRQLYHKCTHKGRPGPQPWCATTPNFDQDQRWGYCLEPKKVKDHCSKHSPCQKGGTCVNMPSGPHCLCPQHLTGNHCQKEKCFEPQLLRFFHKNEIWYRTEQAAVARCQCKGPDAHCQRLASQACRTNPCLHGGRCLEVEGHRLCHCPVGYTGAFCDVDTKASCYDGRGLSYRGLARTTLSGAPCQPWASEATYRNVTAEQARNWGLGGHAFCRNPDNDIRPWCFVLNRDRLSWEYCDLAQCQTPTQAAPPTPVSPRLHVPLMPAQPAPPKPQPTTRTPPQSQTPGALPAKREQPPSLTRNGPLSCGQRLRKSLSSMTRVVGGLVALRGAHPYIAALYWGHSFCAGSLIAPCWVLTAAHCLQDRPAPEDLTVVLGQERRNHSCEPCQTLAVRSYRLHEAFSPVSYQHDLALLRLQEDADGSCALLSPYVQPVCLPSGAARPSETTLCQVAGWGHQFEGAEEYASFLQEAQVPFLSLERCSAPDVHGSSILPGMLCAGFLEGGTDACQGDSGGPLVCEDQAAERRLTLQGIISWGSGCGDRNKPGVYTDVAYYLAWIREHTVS

human Factor XII = target: T2, human Factor XII (human, UniProt P00748 20-615); experiment: SPR (Biacore), purified IgG captured on anti-human IgG, FXII 0-500 nM, 1:1 fit, 25 C
T2 construct: Zymogen bought from Enzyme Research Laboratories; also called FXII
T2 sequence: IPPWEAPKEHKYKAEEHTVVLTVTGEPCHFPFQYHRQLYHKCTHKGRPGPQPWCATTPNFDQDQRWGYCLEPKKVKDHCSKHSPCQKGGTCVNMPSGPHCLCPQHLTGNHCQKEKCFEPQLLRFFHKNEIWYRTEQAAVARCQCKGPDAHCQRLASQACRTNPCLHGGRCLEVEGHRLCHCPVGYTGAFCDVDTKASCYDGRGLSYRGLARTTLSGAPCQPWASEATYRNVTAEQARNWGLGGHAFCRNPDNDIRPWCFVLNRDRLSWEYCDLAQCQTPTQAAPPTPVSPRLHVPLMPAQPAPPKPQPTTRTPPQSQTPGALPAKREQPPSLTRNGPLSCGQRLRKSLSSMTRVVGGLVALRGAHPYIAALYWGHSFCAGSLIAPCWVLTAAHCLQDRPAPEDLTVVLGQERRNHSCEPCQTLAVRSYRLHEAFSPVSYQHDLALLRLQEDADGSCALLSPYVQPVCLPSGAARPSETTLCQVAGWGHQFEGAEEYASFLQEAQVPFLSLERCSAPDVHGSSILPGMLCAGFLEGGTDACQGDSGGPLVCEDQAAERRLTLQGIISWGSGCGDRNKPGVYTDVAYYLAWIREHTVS

G472S = target: T3, G472S; experiment: Western blot of culture supernatant (non-reducing SDS-PAGE) probed with 3F7 mAb, anti-human IgG-FITC
T3 construct: also called Mu-FXII G472S mutant with C-terminal 8xHis-tag; mutant k)
T3 single chain: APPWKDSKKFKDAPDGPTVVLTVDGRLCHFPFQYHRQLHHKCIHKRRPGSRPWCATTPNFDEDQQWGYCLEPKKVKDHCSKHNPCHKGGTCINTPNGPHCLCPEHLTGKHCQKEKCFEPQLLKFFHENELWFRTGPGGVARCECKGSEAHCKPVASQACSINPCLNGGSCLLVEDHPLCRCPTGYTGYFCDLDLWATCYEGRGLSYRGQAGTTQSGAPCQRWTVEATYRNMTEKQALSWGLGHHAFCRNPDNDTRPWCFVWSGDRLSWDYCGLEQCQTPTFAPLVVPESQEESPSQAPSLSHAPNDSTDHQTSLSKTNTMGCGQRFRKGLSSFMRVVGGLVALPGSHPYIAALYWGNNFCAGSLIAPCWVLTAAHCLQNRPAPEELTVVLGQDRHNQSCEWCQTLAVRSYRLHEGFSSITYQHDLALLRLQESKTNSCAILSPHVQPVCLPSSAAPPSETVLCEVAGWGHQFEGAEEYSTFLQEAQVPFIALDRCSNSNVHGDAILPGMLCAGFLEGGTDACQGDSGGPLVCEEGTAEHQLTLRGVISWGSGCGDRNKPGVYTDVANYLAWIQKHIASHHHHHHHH
Method: (§1) Proteins were then transferred electrophoretically onto nitrocellulose filters and blocked for 1 hour in 5% Milk powder in Tris-buffered saline with 0.05% Tween-20 (TTBS). Filters were then incubated for 1 hour with either 3F7 mAb or an anti-His mAb 3H3 (both at […] in TTBS with 5% Milk powder), washed thoroughly with TTBS, then incubated for a further hour with anti-human IgG-FITC or anti-mouse IgG-FITC, respectively (Millipore, USA; both at 0.25 mg/ml in TTBS with 5% Milk powder). Following further washing of membranes in TTBS, Ab-FITC bound proteins were visualized using a Typhoon variable mode analyzer (GE Healthcare, USA).

R427H = target: T4, R427H; experiment: as above
T4 construct: also called Mu-FXII R427H mutant with C-terminal 8xHis-tag; mutant e)
T4 single chain: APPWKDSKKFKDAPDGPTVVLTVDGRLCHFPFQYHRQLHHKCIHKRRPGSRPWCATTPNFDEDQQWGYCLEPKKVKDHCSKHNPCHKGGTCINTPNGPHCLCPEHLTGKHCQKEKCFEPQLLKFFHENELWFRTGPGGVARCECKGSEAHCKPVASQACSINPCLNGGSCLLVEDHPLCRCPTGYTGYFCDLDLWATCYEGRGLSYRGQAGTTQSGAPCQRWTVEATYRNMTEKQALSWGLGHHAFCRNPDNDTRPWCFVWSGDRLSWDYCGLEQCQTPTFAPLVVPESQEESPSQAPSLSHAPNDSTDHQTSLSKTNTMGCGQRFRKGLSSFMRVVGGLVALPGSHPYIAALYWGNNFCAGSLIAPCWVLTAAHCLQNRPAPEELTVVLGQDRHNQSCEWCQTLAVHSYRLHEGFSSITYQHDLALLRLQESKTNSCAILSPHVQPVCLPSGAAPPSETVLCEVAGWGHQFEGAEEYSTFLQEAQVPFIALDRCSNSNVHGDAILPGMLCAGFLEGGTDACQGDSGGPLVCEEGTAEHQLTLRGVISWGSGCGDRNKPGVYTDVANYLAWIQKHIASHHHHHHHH
Method: as §1

human FXIIa = target: T5, human FXIIa (human, UniProt P00748 20-615, limits assumed); experiment: cell-based or functional assay
T5 sequence: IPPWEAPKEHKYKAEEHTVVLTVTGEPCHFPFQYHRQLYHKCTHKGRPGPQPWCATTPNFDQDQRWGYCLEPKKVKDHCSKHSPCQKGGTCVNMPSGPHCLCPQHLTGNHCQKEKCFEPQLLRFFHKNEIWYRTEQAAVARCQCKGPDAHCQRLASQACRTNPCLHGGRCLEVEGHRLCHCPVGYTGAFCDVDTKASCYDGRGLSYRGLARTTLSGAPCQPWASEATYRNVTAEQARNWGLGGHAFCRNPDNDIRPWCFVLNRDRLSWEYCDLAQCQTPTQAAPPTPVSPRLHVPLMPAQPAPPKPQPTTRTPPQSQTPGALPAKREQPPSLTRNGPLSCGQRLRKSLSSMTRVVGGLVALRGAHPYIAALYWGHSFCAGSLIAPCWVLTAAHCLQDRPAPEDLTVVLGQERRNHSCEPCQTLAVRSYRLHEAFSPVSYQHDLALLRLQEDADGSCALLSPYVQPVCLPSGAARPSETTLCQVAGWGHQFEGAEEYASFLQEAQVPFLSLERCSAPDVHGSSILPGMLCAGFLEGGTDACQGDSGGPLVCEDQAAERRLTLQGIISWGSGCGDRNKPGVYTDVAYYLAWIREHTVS

% Inhibition, ratio FXIIa-alpha:Antibody 1:0.1 (human Factor XIIa-alpha): 35.5%
% Inhibition, ratio FXIIa-alpha:Antibody 1:0.1 (second 3F7 block) (human Factor XIIa-alpha): 38.3%
% Inhibition, ratio FXIIa-alpha:Antibody 1:0.2 (human Factor XIIa-alpha): 62.5%
% Inhibition, ratio FXIIa-alpha:Antibody 1:0.2 (second 3F7 block) (human Factor XIIa-alpha): 66.8%
% Inhibition, ratio FXIIa-alpha:Antibody 1:0.5 (human Factor XIIa-alpha): 91.9%
% Inhibition, ratio FXIIa-alpha:Antibody 1:0.5 (second 3F7 block) (human Factor XIIa-alpha): 91.4%
% Inhibition, ratio FXIIa-alpha:Antibody 1:1 (human Factor XIIa-alpha): 97.9%
% Inhibition, ratio FXIIa-alpha:Antibody 1:1 (second 3F7 block) (human Factor XIIa-alpha): 96.1%
% Inhibition, ratio FXIIa-alpha:Antibody 1:2 (human Factor XIIa-alpha): 100%
% Inhibition, ratio FXIIa-alpha:Antibody 1:2 (second 3F7 block) (human Factor XIIa-alpha): 100%
% Inhibition, ratio FXIIa-alpha:Antibody 1:5 (human Factor XIIa-alpha): 100%
% Inhibition, ratio FXIIa-alpha:Antibody 1:5 (second 3F7 block) (human Factor XIIa-alpha): 100%
% Inhibition, ratio FXIIa-alpha:Antibody 1:10 (human Factor XIIa-alpha): 100%
% Inhibition, ratio FXIIa-alpha:Antibody 1:10 (second 3F7 block) (human Factor XIIa-alpha): 100%
Kd (human Factor XII): 121 nM
binding result (G472S): binds
binding result (R427H): binds
potency in the FXIIa amidolytic activity assay, against OT-2 (human FXIIa): ~2 fold
B1: monoclonal antibody 3F7 (fully human IgG4/lambda) (antibody, V domains shown)
VH: EVQLLESGGGLVQPGGSLRLSCAASGFTFSKYIMQWVRQAPGKGLEWVSGIRPSGGTTVYADSVKGRFTISRDNSKNTLYLQMNSLRAEDTAVYYCARALPRSGYLISPHYYYYALDVWGQGTTVTVSS
VL: QSELTQPPSASGTPGQRVTISCSGSSSNIGRNYVYWYQQVPGTAPKLLIYSNNQRPSGVPDRFSGSKSGTSASLVISGLRSEDEADYYCAAWDASLRGVFGGGTKLTVLG
notes: also called 3F7 mAb; MAb 3F7
